According to patent US20110104143:

What was measured:
[1] = target: DDX3 (endogenous, full-length human DDX3 in tumor cell lysates), O00571
DDX3 (endogenous, full-length human DDX3 in tumor cell lysates), O00571, sequence (O00571 whole entry, looked up): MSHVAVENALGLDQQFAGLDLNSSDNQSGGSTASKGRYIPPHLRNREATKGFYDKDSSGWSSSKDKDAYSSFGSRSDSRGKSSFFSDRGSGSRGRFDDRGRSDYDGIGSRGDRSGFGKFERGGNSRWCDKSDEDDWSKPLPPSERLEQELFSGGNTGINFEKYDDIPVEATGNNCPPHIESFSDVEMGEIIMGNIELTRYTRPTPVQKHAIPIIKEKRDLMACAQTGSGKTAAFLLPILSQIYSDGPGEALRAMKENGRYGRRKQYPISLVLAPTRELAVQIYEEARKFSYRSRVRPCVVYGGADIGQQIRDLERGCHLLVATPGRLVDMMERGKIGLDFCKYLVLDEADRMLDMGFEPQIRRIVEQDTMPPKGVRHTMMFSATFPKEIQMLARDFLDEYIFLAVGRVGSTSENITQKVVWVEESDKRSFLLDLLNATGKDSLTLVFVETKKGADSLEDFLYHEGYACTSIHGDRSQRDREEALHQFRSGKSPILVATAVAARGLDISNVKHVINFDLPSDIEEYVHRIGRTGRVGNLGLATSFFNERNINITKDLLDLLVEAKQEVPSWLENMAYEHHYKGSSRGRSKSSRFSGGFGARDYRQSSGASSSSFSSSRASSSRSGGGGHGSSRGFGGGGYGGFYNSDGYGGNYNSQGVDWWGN

B1: Active Caspase-8 (protein)
chain: SESQTLDKVYQMKSKPRGYCLIINNHNFAKAREKVPKLHSIRDRNGTHLDAGALTTTFEELHFEIKPHDDCTVEQIYEILKIYQLMDHSNMDCFICCILSHGDKGIIYGTDGQEAPIYELTSQFTGLKCPSLAGKPKVFFIQACQGDNYQKGIPVETDSEEQPYLEMDLSSPQTRYIPDEADFLLGMATVNNCVSYRNPAEGTWYIQSLCQSLRERCPRGDDILTILTEVNYEVSNKDDKKNMGKQMPQPTFTLRKKLVFPSD
cIAP1, Q13490
cIAP1, Q13490, sequence (Q13490 whole entry): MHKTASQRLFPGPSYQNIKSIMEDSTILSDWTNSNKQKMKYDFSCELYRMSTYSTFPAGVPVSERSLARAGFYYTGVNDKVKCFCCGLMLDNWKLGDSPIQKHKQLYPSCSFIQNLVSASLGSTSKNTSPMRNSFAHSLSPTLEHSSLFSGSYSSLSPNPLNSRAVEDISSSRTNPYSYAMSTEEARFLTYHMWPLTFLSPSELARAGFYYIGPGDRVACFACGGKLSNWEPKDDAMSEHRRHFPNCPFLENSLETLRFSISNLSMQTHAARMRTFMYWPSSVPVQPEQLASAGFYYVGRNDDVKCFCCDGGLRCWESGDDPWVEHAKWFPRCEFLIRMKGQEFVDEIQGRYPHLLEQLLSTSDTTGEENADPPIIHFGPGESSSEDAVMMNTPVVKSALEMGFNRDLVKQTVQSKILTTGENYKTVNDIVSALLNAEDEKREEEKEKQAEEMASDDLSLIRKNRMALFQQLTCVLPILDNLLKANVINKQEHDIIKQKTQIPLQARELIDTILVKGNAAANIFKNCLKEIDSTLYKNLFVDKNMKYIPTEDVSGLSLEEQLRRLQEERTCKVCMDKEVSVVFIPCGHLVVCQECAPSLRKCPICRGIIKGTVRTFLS
  caspase-8 protease activity on the fluorogenic substrate Ac-IETD-AMC: purified cIAP1 also suppressed caspase-8 protease activity completely
[1]
  cleavage of DR5-associated DDX3 by active caspase, Western blot with anti-DDX3 antibody: DDX3 cleavage by caspase-8 in resistant cells was highly attenuated compared to sensitive cells

B2: Active Caspase-2 (protein)
chain: GPVCLQVKPCTPEFYQTHFQLAYRLQSRPRGLALVLSNVHFTGEKELEFRSGGDVDHSTLVTLFKLLGYDVHVLCDQTAQEMQEKLQNFAQLPAHRVTDSCIVALLSHGVEGAIYGVDGKLLQLQEVFQLFDNANCPSLQNKPKMFFIQACRGDETDRGVDQQDGKNHAGSPGCEESDAGKEKLPKMRLPTRSDMICGYACLKGTAAMRNTKRGSWYIEALAQVFSERACDMHVADMLVKVNALIKDREGYAPGTEFHRCKEMSEYCSTLCRHLYLFPGHPPT
[1]
  cleavage of DR5-associated DDX3 by active caspase, Western blot with anti-DDX3 antibody: caspase-2 exhibited similar protease potential in both cells
